Test results published in patent US20260364215A1, “Radiopharmaceutical Compositions Targeting Ephrin Type-A Receptor 2 and Uses Thereof” (PeptiDream Inc., priority 2022, published 2026).
Where two headings read alike, the source gives them in different places. Numbered stars: 1 amine (or outer) side, 2 acyl side, 3 side chain; on linkers, the order of the positions; unused ones are H or OH. Bridge positions count the residues as written; N and C are the ends. Square brackets hold non-standard residues; d marks the D form. Side chains are listed from the residue outwards. Peptide text beside a SMILES is read from it. * marks the point of attachment. DOTA(Lu) = O=C1CN2CCN3CCN(CC(=O)*)CCN(CC2)CC(=O)[O][Lu]([O]1)[O]C(=O)C3; X4 = CC(C)(C)C[C@H](CNCCCC[C@H](N[*:1])C(=O)[*:2])N[*:3]; DOTA = O=C(O)CN1CCN(CC(=O)O)CCN(CC(=O)*)CCN(CC(=O)O)CC1; Trp(1-Me,7-Cl) = Cn1cc(C[C@H](N)C(=O)O)c2cccc(Cl)c21; dPhe(3-CONH2) = NC(=O)c1cccc(C[C@@H](N)C(=O)O)c1; Piperazinyl(4-CH2COOH) = O=C(O)CN1CCN(*)CC1; Trp(1-Me) = Cn1cc(C[C@H](N)C(=O)O)c2ccccc21; PEG8 = NCCOCCOCCOCCOCCOCCOCCOCCOCCC(=O)O; d(tBuAla) = CC(C)(C)C[C@@H](N)C(=O)O; NMe3Pal = CN[C@@H](Cc1cccnc1)C(=O)O; NMeF = CN[C@@H](Cc1ccccc1)C(=O)O; hArg = N=C(N)NCCCC[C@H](N)C(=O)O; Gly(cBu) = N[C@H](C(=O)O)C1CCC1; NMeE = CN[C@@H](CCC(=O)O)C(=O)O; Aad = N[C@@H](CCCC(=O)O)C(=O)O; AEEA = NCCOCCOCC(=O)O; CO = O=C([*:1])[*:2]; βAla = NCCC(=O)O

What was measured:
[1] = Plasma stability (% remaining of test compound in CD-1 (ICR) mouse plasma at 37 °C; Example C1); type: in vitro ADME; details: for % Remaining Mouse: 0 min; for remaining at 2 h, 2 µM: pH 7.4, 120 min; for half-life at 2 µM: pH 7.4, read-out: T1/2 (min) Mouse
Protocol: Example C1. Plasma Stability
The pooled frozen CD-1 (ICR) mouse plasma was thawed in a water bath at 37 °C prior to experiment. Plasma was centrifuged at 4000 rpm for 5 min and the clots were removed if any. pH was adjusted to 7.4±0.1 if required.
Plasma (98 μL) and test compounds (2 μL, 100 μM, in DMSO) or reference compound propantheline bromide (2 μL, 100 μM in 40% v/v MeOH/H2O) were added to the individual wells of a 96-well microtiter plate in duplicate. The plate was incubated at 37 °C. During the incubation, aliquots were withdrawn at 0, 10, 30, 60, 120, and 300 minutes. 100 μL 4% H3PO4 and 800 μL of stop solution (200 ng/mL tolbutamide and 200 ng/mL labetalol in 100% CH3CN) were added to precipitate unwanted proteins. After mixing thoroughly, the quenched aliquots were centrifuged at 4,000 rpm for 20 min. Aliquots (100 μL) of supernatant were transferred to a new plate. The samples were shaken at 800 rpm for 10 min before performing LC-MS/MS analysis.
The analytes were detected by a multiple reaction monitoring method using a SCIEX Triple Quad 6500+ system equipped with an ACQUITY UPLC HSS T3 column (100 Å, 1.8 μm, 2.1 mm×30 mm). Mobile phase A: water with 0.1% formic acid; Mobile phase B: CH3CN with 0.1% formic acid.
(§1) The % remaining of test compound after incubation in plasma was calculated using the following equation:
(§2) % Remaining=100×(PAR(t)/PAR(t0)), where PAR is the peak area ratio of analyte versus internal standard (IS)

[2] = target: T1, Recombinant Human EphA2 Fc Protein (Homo sapiens, UniProt P29317); assay: Interaction analysis (kinetics, KD) of peptides and conjugates against EphA2 by SPR, Biacore T200, single-cycle kinetics (Examples B15 and B22); type: binding
T1 construct: purchased Elabscience
T1 sequence (P29317 24-534 limits assumed): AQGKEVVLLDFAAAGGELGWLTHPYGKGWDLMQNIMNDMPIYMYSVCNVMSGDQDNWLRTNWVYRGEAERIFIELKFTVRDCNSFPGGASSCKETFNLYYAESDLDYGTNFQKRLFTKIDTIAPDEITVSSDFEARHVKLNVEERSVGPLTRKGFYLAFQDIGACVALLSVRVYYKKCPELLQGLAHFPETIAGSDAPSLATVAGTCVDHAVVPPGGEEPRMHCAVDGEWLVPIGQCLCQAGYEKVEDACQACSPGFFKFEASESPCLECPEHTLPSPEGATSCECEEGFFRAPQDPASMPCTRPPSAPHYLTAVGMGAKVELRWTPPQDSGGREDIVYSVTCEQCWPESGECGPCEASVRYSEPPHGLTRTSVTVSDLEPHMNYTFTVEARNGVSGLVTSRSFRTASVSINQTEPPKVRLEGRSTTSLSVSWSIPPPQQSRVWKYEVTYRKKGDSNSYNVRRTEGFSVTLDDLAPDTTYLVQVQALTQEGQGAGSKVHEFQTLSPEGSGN
How it was run: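 Biacore T200 SPR with Fc-tagged human EphA2 captured via anti-human antibody; running buffer HBS-P+ pH 7.4 with 1% DMSO, 25 °C. Five serial dilutions of peptide or conjugate run by single-cycle kinetics; KD from ka and kd after baseline subtraction.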

[3] = Plasma stability (% remaining and T1/2 of test compound in human plasma; Table C1); type: in vitro ADME; details: for % Remaining Human: 0 min; for remaining at 2 h: 120 min
Protocol: as §1, §2

[4] = target: T2, EphA2 (Biotin-Avi-His-EphA2; Fc-EphA2 where the peptide had a biotin) (Homo sapiens, UniProt P29317); assay: Surface plasmon resonance (SPR) peptide binding, Biacore 8K, immobilized EphA2, single cycle kinetics (Example C7); details: 25 °C, Langmuir 1:1
T2 construct: His; purchased SinoBiologicals 13926-H27H-B
T2 sequence (P29317 24-534 limits assumed): as above
Protocol: Example C7. Surface Plasmon Resonance (SPR)
For analysis of peptide binding, a Biacore 8K instrument was used utilizing a SA chip. Biotin-Avi-His-EphA2 (SinoBiologicals, 13926-H27H-B) was immobilized on the chip using streptavidin-biotin chemistry at 25 °C in HBS-P+ buffer (10 mM HEPES, 150 mM NaCl, 0.05% Tween-20, pH 7.4) to a level of 1000-2000 RU (dependent on the analyte molecular weight). […] A dilution series of peptides was prepared in this buffer with a final DMSO concentration of 0.1% with a top peptide concentration between 10-100 nM and 9 further 2-fold dilutions. The SPR analysis was run at 25 °C at a flow rate of 30 μL/min in HBS-P+ with 0.1% DMSO running buffer and with a 120 second association and 1,200 second dissociation using single cycle kinetics methodology. All data was analyzed using Biacore Insight Evaluation Software version 4. Data was fitted using a Langmuir 1:1 binding model.

[5] = conjugates, Biacore T200 according to Example B15, Table B16, read-out: SPR Kd

SMILES	% Remaining Mouse [1]	remaining at 2 h, 2 µM [1]	half-life at 2 µM [1]	Kd [2, 5]	half-life [3]	% Remaining Human [3]	remaining at 2 h [3]	KD [4]	Kd [2]
CC(C)C[C@@H]1NC(=O)[C@H](CC(N)=O)NC(=O)[C@H](Cc2ccccc2)N(C)C(=O)[C@@H](C)NC(=O)CSC[C@@H](C(=O)NCCC(=O)N[C@H](CCCCNC(=O)COCCOCCNC(=O)CCOCCOCCOCCOCCOCCOCCOCCOCCNC(=O)CN2CCN(CC(=O)O)CCN(CC(=O)O)CCN(CC(=O)O)CC2)C(N)=O)NC(=O)[C@H](CCC(=O)O)NC(=O)[C@H]([C@@H](C)O)NC(=O)[C@H](Cc2cn(C)c3ccccc23)NC(=O)[C@H](C(C)C)NC(=O)[C@H](Cc2cn(C)c3ccccc23)NC(=O)[C@H](Cc2ccccc2)N(C)C(=O)[C@H](CCCC(=O)O)NC1=O.[Lu+3] [PDC_EphA2-00001417-C306] ({CH2CO}-[dA][NMeF]NL[Aad][NMeF][Trp(1-Me)]V[Trp(1-Me)]TEC[βAla][dK]([AEEA-PEG8-DOTA])-NH2; thioether N-12)	100%	91%	> 289 min	1 to 10 nM	> 4.82 h	100%	99%		
CC(C)C[C@@H]1NC(=O)[C@H](CC(N)=O)NC(=O)[C@H](Cc2cccnc2)N(C)C(=O)[C@@H](C)NC(=O)CSC[C@@H](C(=O)N[C@H](CCCCNC(=O)CN2CCN(CC(=O)O)CCN(CC(=O)O)CCN(CC(=O)O)CC2)C(N)=O)NC(=O)[C@H](CCCCNC(=N)N)NC(=O)[C@H]([C@@H](C)O)NC(=O)[C@H](Cc2cn(C)c3ccccc23)NC(=O)[C@H](CCCCNC(=O)N2CCN(CC(=O)O)CC2)NC(=O)[C@H](Cc2cn(C)c3ccccc23)NC(=O)[C@H](CCC(=O)O)N(C)C(=O)[C@H](CCCC(N)=O)NC1=O.[Lu+3] [PDC_EphA2-00008010-C302] ({CH2CO}-[dA][NMe3Pal]NL[Aad](NH2)[NMeE][Trp(1-Me)]K([CO-Piperazinyl(4-CH2COOH)])[Trp(1-Me)]T[hArg]C[dK](DOTA)-NH2; thioether N-12)				< 1 nM				2.11e-10 M⁻¹	
CC(C)C[C@@H]1NC(=O)[C@H](CC(N)=O)NC(=O)[C@H](Cc2cccnc2)N(C)C(=O)[C@@H](C)NC(=O)CSC[C@@H](C(=O)N[C@H](CCCCNC(=O)CN2CCN(CC(=O)O)CCN(CC(=O)O)CCN(CC(=O)O)CC2)C(N)=O)NC(=O)[C@H](CCCC(N)=O)NC(=O)[C@H]([C@@H](C)O)NC(=O)[C@H](Cc2cn(C)c3ccccc23)NC(=O)[C@H](CCCCNC(=O)N2CCN(CC(=O)O)CC2)NC(=O)[C@H](Cc2cn(C)c3ccccc23)NC(=O)[C@H](Cc2ccccc2)N(C)C(=O)[C@H](CCCC(N)=O)NC1=O.[Lu+3] [PDC_EphA2-00008093-C302] ({CH2CO}-[dA][NMe3Pal]NL[Aad](NH2)[NMeF][Trp(1-Me)]K([CO-Piperazinyl(4-CH2COOH)])[Trp(1-Me)]T[Aad](NH2)C[dK](DOTA)-NH2; thioether N-12)	100.0%	101%	> 289 min	< 1 nM	> 4.82 h	100.0%	102%		
CC(C)C[C@@H]1NC(=O)[C@H](CC(N)=O)NC(=O)[C@H](Cc2cccnc2)N(C)C(=O)[C@@H](C)NC(=O)CSC[C@@H](C(=O)N[C@H](CCCCNC(=O)CN(C)C(=O)CN(C)C(=O)CN(C)C(=O)CN(C)C(=O)CN(C)C(=O)CN(C)C(=O)CN(C)C(=O)CN(C)C(=O)CN(C)C(=O)CN(C)C(=O)CCNC(=O)CN2CCN(CC(=O)O)CCN(CC(=O)O)CCN(CC(=O)O)CC2)C(N)=O)NC(=O)[C@H](CCCC(N)=O)NC(=O)[C@H]([C@@H](C)O)NC(=O)[C@H](Cc2cn(C)c3ccccc23)NC(=O)[C@H](CCCCNC(=O)N2CCN(CC(=O)O)CC2)NC(=O)[C@H](Cc2cn(C)c3ccccc23)NC(=O)[C@H](Cc2ccccc2)N(C)C(=O)[C@H](CCCC(N)=O)NC1=O.[Lu+3] [PDC_EphA2-00008093-C310]	100.0%	107%	> 289 min	< 1 nM	> 4.82 h	100.0%	99%		
C[C@@H](O)[C@@H]1NC(=O)[C@H](Cc2cn(C)c3ccccc23)NC(=O)[C@H](CCCCNC(=O)N2CCN(CC(=O)O)CC2)NC(=O)[C@H](Cc2cn(C)c3c(Cl)cccc23)NC(=O)[C@H](CCC(=O)O)N(C)C(=O)[C@H](CCCC(N)=O)NC(=O)[C@H](C2CCC2)NC(=O)[C@H](CC(N)=O)NC(=O)[C@H](Cc2cccnc2)N(C)C(=O)[C@@H](Cc2cccc(C(N)=O)c2)NC(=O)CSC[C@@H](C(=O)N[C@H](CCCCNC(=O)CN2CCN(CC(=O)O)CCN(CC(=O)O)CCN(CC(=O)O)CC2)C(N)=O)NC(=O)[C@H](CCCC(N)=O)NC1=O.[Lu+3] [PDC_EphA2-00019440-C302] ({CH2CO}-[dPhe(3-CONH2)][NMe3Pal]N[Gly(cBu)][Aad](NH2)[NMeE][Trp(1-Me,7-Cl)]K([CO-Piperazinyl(4-CH2COOH)])[Trp(1-Me)]T[Aad](NH2)C[dK](DOTA)-NH2; thioether N-12)				< 1 nM				8.18e-11 M⁻¹	
C[C@H]1NC(=O)CSC[C@@H](C(N)=O)NC(=O)[C@H](CCCCNC(=O)[C@@H](Cc2ccccc2)NC(=O)CN2CCN(CC(=O)O)CCN(CC(=O)O)CCN(CC(=O)O)CC2)NC(=O)[C@H]([C@@H](C)O)NC(=O)[C@H](Cc2cn(C)c3ccccc23)NC(=O)[C@H](CCCCNC(=O)N2CCN(CC(=O)O)CC2)NC(=O)[C@H](Cc2cn(C)c3c(Cl)cccc23)NC(=O)[C@H](CCC(=O)O)N(C)C(=O)[C@H](CCCC(N)=O)NC(=O)[C@H](C2CCC2)NC(=O)[C@H](CC(N)=O)NC(=O)[C@H](Cc2cccnc2)N(C)C1=O.[Lu+3] [PDC_EphA2-00027129] ({CH2CO}-[dA][NMe3Pal]N[Gly(cBu)][Aad](NH2)[NMeE][Trp(1-Me,7-Cl)]K([CO-Piperazinyl(4-CH2COOH)])[Trp(1-Me)]TK([dF-DOTA])C-NH2; thioether N-12)				< 1 nM					
C[C@H]1NC(=O)CSC[C@@H](C(=O)N[C@H](CCC(=O)O)C(N)=O)NC(=O)[C@H](CCCC(N)=O)NC(=O)[C@H]([C@@H](C)O)NC(=O)[C@H](Cc2cn(C)c3ccccc23)NC(=O)[C@H](CCCCNC(=O)N2CCN(CC(=O)O)CC2)NC(=O)[C@H](Cc2cn(C)c3c(Cl)cccc23)NC(=O)[C@H](CCC(=O)O)N(C)C(=O)[C@H](CCCCNC(=O)[C@@H](CC(C)(C)C)NC(=O)CN2CCN3CCN4CCN(CC2)CC(=O)[O][Lu]([O]C(=O)C3)[O]C(=O)C4)NC(=O)[C@H](C2CCC2)NC(=O)[C@H](CC(N)=O)NC(=O)[C@H](Cc2cccnc2)N(C)C1=O [PDC_EphA2-00027130] ({CH2CO}-[dA][NMe3Pal]N[Gly(cBu)]K([d(tBuAla)-DOTA(Lu)])[NMeE][Trp(1-Me,7-Cl)]K([CO-Piperazinyl(4-CH2COOH)])[Trp(1-Me)]T[Aad](NH2)C[dE]-NH2; thioether N-12)									< 1 nM
C[C@H]1NC(=O)CSC[C@@H](C(N)=O)NC(=O)[C@H](CCCCNC[C@@H](CC(C)(C)C)NC(=O)CN2CCN3CCN4CCN(CC2)CC(=O)[O][Lu]([O]C(=O)C3)[O]C(=O)C4)NC(=O)[C@H]([C@@H](C)O)NC(=O)[C@H](Cc2cn(C)c3ccccc23)NC(=O)[C@H](CCCCNC(=O)N2CCN(CC(=O)O)CC2)NC(=O)[C@H](Cc2cn(C)c3ccccc23)NC(=O)[C@H](CCC(=O)O)N(C)C(=O)[C@H](CCCC(N)=O)NC(=O)[C@H](C2CCC2)NC(=O)[C@H](CC(N)=O)NC(=O)[C@H](Cc2cccnc2)N(C)C1=O [PDC_EphA2-00027131] ({CH2CO}-[dA][NMe3Pal]N[Gly(cBu)][Aad](NH2)[NMeE][Trp(1-Me)]K([CO-Piperazinyl(4-CH2COOH)])[Trp(1-Me)]T[X4](DOTA(Lu))C-NH2; thioether N-12)									< 1 nM
